Results from the supplement of paper PMC12855868.

B1: library; numbered along this chain (parent)
chain: MAAAGGARLLRAASAVLGGPAGRWLHHAGSRAGSSGLLRNRGPGGSAEASRSLSVSARARSSSEDKITVHFINRDGETLTTKGKVGDSLLDVVVENNLDIDGFGACEGTLACSTCHLIFEDHIYEKLDAITDEENDMLDLAYGLTDRSRLGCQICLTKSMDNMTVRVPETVADARQSIDVGKTS

Variants of: B1
Assay: scaled log2 fold change in cell abundance, elesclomol vs control (0 = silent mean, 1 = nonsense mean) (scaled log2 ratio); higher = higher viability under elesclomol (loss of FDX1 cuproptosis function)
Conditions: glucose 10 mM
Method: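 Deep mutational scan of full-length human FDX1: a pooled saturation-mutagenesis ORF library (every residue 2-184 mutated to all 19 amino acids plus stop, and silent codons where available) was expressed by lentivirus in FDX1-knockout ABC1 (14 days) or HEK293T (11 days) cells grown with elesclomol (ES) or DMSO control. Variant abundance came from ORF sequencing. The log2 fold change (ES vs control, mean of duplicates) was centred on the silent-variant mean (0) and scaled to the nonsense-variant mean (1). Higher values mean greater viability under ES, i.e. loss of FDX1 function in cuproptosis.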

[1] = with ABC1 FDX1 KO, elesclomol 5 nM, 14 days
[2] = with HEK293T FDX1 KO, elesclomol 40 nM, 11 days
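Further: variant abundance is its share of total variant reads in each endpoint sample, from next-generation sequencing of the integrated ORF PCR-amplified out of genomic DNA.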

Variant	scaled log2 fold change [1]	scaled log2 fold change [2]
MAAAGGARLLRAASAVLGGPAGRWLHHAGSRAGSSGLLRNRGPGGSAEASRSLSVSARARSSSEDKITVHFINRDGETLTTKGKVGDSLLDVVVENNLDIDGFGACEGTLACSTCHLIFEDHIYEKLDAITDEENDMLDLAYGLTDRSRLGYQICLTKSMDNMTVRVPETVADARQSIDVGKTS [C152Y]	1.15	1.64
MAAAGGARLLRAASAVLGGPAGKWLHHAGSRAGSSGLLRNRGPGGSAEASRSLSVSARARSSSEDKITVHFINRDGETLTTKGKVGDSLLDVVVENNLDIDGFGACEGTLACSTCHLIFEDHIYEKLDAITDEENDMLDLAYGLTDRSRLGCQICLTKSMDNMTVRVPETVADARQSIDVGKTS [R23K]	0.498	
MAAAGGARLLRAASAVLGGPAGRWLHHAGSRAGSSGLLRNRGPGGSAEYSRSLSVSARARSSSEDKITVHFINRDGETLTTKGKVGDSLLDVVVENNLDIDGFGACEGTLACSTCHLIFEDHIYEKLDAITDEENDMLDLAYGLTDRSRLGCQICLTKSMDNMTVRVPETVADARQSIDVGKTS [A49Y]	0.29	-1.02
MAAAGGARLLRAASAVLGGPAGRWLHHAGSRAGSSGLLRNRGPGGSAEGSRSLSVSARARSSSEDKITVHFINRDGETLTTKGKVGDSLLDVVVENNLDIDGFGACEGTLACSTCHLIFEDHIYEKLDAITDEENDMLDLAYGLTDRSRLGCQICLTKSMDNMTVRVPETVADARQSIDVGKTS [A49G]	-0.302	0.424
MAAAGGARLLRAASAVLGGPAGRWLHHAGSRAGHSGLLRNRGPGGSAEASRSLSVSARARSSSEDKITVHFINRDGETLTTKGKVGDSLLDVVVENNLDIDGFGACEGTLACSTCHLIFEDHIYEKLDAITDEENDMLDLAYGLTDRSRLGCQICLTKSMDNMTVRVPETVADARQSIDVGKTS [S34H]	0.251	-0.957
MAAAGGARLLRAASAVLGGPAGRWLHHAGSRAGSSGLLRNRGPGGSAEASRSLSVSARARSSSEDKITVHFINRDGETLTTKGKVGDSLLDVVVENNLDIDGFGACEGTLACSTCHLINEDHIYEKLDAITDEENDMLDLAYGLTDRSRLGCQICLTKSMDNMTVRVPETVADARQSIDVGKTS [F119N]	0.967	0.538
MAAAGGARLLRAASAVLGGPAGRWLHHAGSRAGSSGLLRNRGPGGSAEASRSLSVSARARSSSEDKITVHFINRDGETLTTKGKVGDSLLDVVVENNLDIDGFGACEGTLACSTCHLIFEDHIYEKLDAITDEENDMLDLAYGLTDRSRLICQICLTKSMDNMTVRVPETVADARQSIDVGKTS [G151I]	1.07	0.797
MAAAGGQRLLRAASAVLGGPAGRWLHHAGSRAGSSGLLRNRGPGGSAEASRSLSVSARARSSSEDKITVHFINRDGETLTTKGKVGDSLLDVVVENNLDIDGFGACEGTLACSTCHLIFEDHIYEKLDAITDEENDMLDLAYGLTDRSRLGCQICLTKSMDNMTVRVPETVADARQSIDVGKTS [A7Q]	-0.0571	
MWAAGGARLLRAASAVLGGPAGRWLHHAGSRAGSSGLLRNRGPGGSAEASRSLSVSARARSSSEDKITVHFINRDGETLTTKGKVGDSLLDVVVENNLDIDGFGACEGTLACSTCHLIFEDHIYEKLDAITDEENDMLDLAYGLTDRSRLGCQICLTKSMDNMTVRVPETVADARQSIDVGKTS [A2W]	-0.098	-0.566
MAAAGGARLLRAASAVLGGPAGRWLHHAGSRAGSSGLLRNRGPGGSAEASRSLSVSARARSSSEDKITVHFINRDGETLTTKGKVGDSLLDVVVENNLDIDGFGACEGTLACSTCHLIFECHIYEKLDAITDEENDMLDLAYGLTDRSRLGCQICLTKSMDNMTVRVPETVADARQSIDVGKTS [D121C]	-0.164	-0.257
MAAAGGARLLRAASAVLGGPNGRWLHHAGSRAGSSGLLRNRGPGGSAEASRSLSVSARARSSSEDKITVHFINRDGETLTTKGKVGDSLLDVVVENNLDIDGFGACEGTLACSTCHLIFEDHIYEKLDAITDEENDMLDLAYGLTDRSRLGCQICLTKSMDNMTVRVPETVADARQSIDVGKTS [A21N]	-0.1	-0.618
MAAAGGARLLRAASAVKGGPAGRWLHHAGSRAGSSGLLRNRGPGGSAEASRSLSVSARARSSSEDKITVHFINRDGETLTTKGKVGDSLLDVVVENNLDIDGFGACEGTLACSTCHLIFEDHIYEKLDAITDEENDMLDLAYGLTDRSRLGCQICLTKSMDNMTVRVPETVADARQSIDVGKTS [L17K]	-0.392	-0.386
MAAAGGARLLRAASAVLGGPAGRWLHHAGSRAGSSGLLRNRGPGGSAEASRSLSVSARARSSSEDKITVHFIIRDGETLTTKGKVGDSLLDVVVENNLDIDGFGACEGTLACSTCHLIFEDHIYEKLDAITDEENDMLDLAYGLTDRSRLGCQICLTKSMDNMTVRVPETVADARQSIDVGKTS [N73I]	-1.24	
MAAAGGARLLRAASAVLGGPAGRWLHHAGSRAGSSGLLRNRGPGGSAEASRSLSVSARARSSSEDKITVHFINRDGETLTTKGKVGDSLLDVVVENNLDIDGFGACEGTLACSTCHLIFEDHIYEKLDAITDEENDMLDLAYGLTDRSRLGCQICLTKSMDNMLVRVPETVADARQSIDVGKTS [T164L]	-0.159	-0.224
MAAAGGARLLRAASAVLGGPAGRWLHHAGSRAGSSGLLRNRGPGGSAEASRSLSVSARARSSSEDKITVHFINRDGETLTTKGKVGDSLLDVVVENNLDIDGFGACEGTLACSTCHLIFEDHIYEKLDAITDEENDMLDLAYGLTDRSRLGCQICLTKSMDNMTVRVPETVADARESIDVGKTS [Q176E]	0.157	-0.685
MAAAGGARKLRAASAVLGGPAGRWLHHAGSRAGSSGLLRNRGPGGSAEASRSLSVSARARSSSEDKITVHFINRDGETLTTKGKVGDSLLDVVVENNLDIDGFGACEGTLACSTCHLIFEDHIYEKLDAITDEENDMLDLAYGLTDRSRLGCQICLTKSMDNMTVRVPETVADARQSIDVGKTS [L9K]	0.158	
MAAAGGARFLRAASAVLGGPAGRWLHHAGSRAGSSGLLRNRGPGGSAEASRSLSVSARARSSSEDKITVHFINRDGETLTTKGKVGDSLLDVVVENNLDIDGFGACEGTLACSTCHLIFEDHIYEKLDAITDEENDMLDLAYGLTDRSRLGCQICLTKSMDNMTVRVPETVADARQSIDVGKTS [L9F]	-0.0603	0.0924
MAAAGGARLLRAASAVLGGPAGRWLHHAGSRAGSHGLLRNRGPGGSAEASRSLSVSARARSSSEDKITVHFINRDGETLTTKGKVGDSLLDVVVENNLDIDGFGACEGTLACSTCHLIFEDHIYEKLDAITDEENDMLDLAYGLTDRSRLGCQICLTKSMDNMTVRVPETVADARQSIDVGKTS [S35H]	-0.513	1.67
